Series [1] addresses porcine albumin (Sus scrofa, UniProt P08835). Kind of series: Binding to porcine albumin, in vitro assay. Conditions: relative to the reference compound EXA. How it is done:
The binding to porcine albumin was determined in an in vitro assay. The values given in Table 1 under the heading “Albumin binding” are relative to the reference compound EXA.

For series [2] the following is noted: pH 7.3.
Procedure: The lipophilicity of the insulin derivatives relative to human insulin, k″rel, was measured on a LiChrosorb RP18 (5 μm, 250×4 mm) HPLC column by isocratic elution at 40° C. using mixtures of A) 0.1 M sodium phosphate buffer, pH 7.3, containing 10% acetonitrile, and B) 50% acetonitrile in water as eluents. The elution was monitored by following the UV absorption of the eluate at 214 nm. Void time, t0, was found by injecting 0.1 mM sodium nitrate. Retention time for human insulin, thuman, was adjusted to at least 2t0 by varying the ratio between the A and B solutions. k′rel=(tderivative−t0)/(thuman−t0).
For series [3] the following is noted: pig, in vivo, sc.
Source text: Determination of Disappearance Half-life, T50%, from the Injection Site after Subcutaneous Injection of an Insulin Derivative in Pigs.

porcine albumin, sequence (P08835 25-607): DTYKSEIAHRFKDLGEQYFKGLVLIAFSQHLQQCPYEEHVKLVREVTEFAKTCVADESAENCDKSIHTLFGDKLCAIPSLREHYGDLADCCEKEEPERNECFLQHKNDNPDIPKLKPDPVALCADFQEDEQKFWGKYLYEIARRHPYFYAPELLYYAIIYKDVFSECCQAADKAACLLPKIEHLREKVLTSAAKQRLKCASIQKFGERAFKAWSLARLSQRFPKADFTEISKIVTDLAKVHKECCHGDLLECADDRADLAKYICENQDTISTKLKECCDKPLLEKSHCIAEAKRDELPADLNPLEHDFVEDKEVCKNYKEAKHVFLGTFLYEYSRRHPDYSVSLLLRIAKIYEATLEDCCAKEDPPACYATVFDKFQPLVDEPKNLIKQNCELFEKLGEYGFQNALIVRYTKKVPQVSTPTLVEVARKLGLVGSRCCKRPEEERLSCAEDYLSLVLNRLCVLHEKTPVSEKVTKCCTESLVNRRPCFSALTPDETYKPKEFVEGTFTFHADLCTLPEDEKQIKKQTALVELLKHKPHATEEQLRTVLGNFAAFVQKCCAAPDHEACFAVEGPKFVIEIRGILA

Consider “N^εB29-tetradecanoyl desB30 insulin [EXA, reference compound]”, for which the Albumin binding in series [1] stood at 1. Besides, the Lipophilicity in series [2] was 113. In series [3], the “T50%” value was 14 h.

The substance “N^εB29-(CO—(CH2)14—COOH) des(B30) Human Insulin [EX2]” had an Albumin binding in series [1] of 5. In series [2], the Lipophilicity was found to be 2.3. For the same substance, in series [3], the “T50%” value worked out at 10 h.

Substance “N^εB29-(CO—(CH2)18—COOH) des(B30) Human Insulin [EX3]” registered an Albumin binding in series [1] of 51. The substance also registered a Lipophilicity in series [2] of 17. The “T50%” value in series [3] was 18 h.

In series [1], “N^εB29-(CO—(CH)12—COOH) des(B30) human insulin [EX1]” yielded an Albumin binding of 0.7. In series [2], the Lipophilicity was 1.4. Further, the “T50%” value in series [3] came to 5 h.

With “N^εB29-(CO—(CH2)16—COOH) des(B30) Human Insulin [EX4]”, the Albumin binding in series [1] was found to be 36. Besides, in series [2], the Lipophilicity was found to be 7.2. For the same substance, the “T50%” value in series [3] stood at 17.1 h.

The substance “N^εB29-hexadecanoyl desB30 insulin [EXB, reference compound]” returned an Albumin binding in series [1] of 0.9. Further, the Lipophilicity in series [2] is 346. For the same substance, in series [3], the “T50%” value amounted to 12 h.

The values are drawn from patent publication US6451970B1, “Peptide derivatives” (Novo Nordisk A/S, priority 1996, dated 2002).
